The results in this text go back to patent publication US20210371499A1 (University of California, published 2021).

This experiment has as its target l[…]/HLA-A*02:01 (l = D-leucine) (human). As to the kind of experiment: SEC TAPBPR binding assay.

B1: TAPasin Binding Protein Related (TAPBPR), luminal domain, His6-tagged (other)
chain: KPHPAEGQWRAVDVVLDCFLAKDGAHRGALASSEDRARASLVLKQVPVLDDGSLEDFTDFQGGTLAQDDPPIIFEASVDLVQIPQAEALLHADCSGKEVTCEISRYFLQMTETTVKTAAWFMANMQVSGGGPSISLVMKTPRVTKNEALWHPTLNLPLSPQGTVRTAVEFQVMTQTQSLSFLLGSSASLDCGFSMAPGLDLISVEWRLQHKGRGQLVYSWTAGQGQAVRKGATLEPAQLGMARDASLTLPGLTIQDEGTYICQITTSLYRAQQIIQLNIQASPKVRLSLANEALLPTLICDIAGYYPLDVVVTWTREELGGSPAQVSGASFSSLRQSVAGTYSISSSLTAEPGSAGATYTCQVTHISLEEPLGASTQVVPPERR
notes: domain: luminal domain; Molecular chaperone; also called TAPBR; HIS-Tagged TAPBPR; not shown: His6 tag
Consider B1, for which the binding result is given as “no binding”.
